According to PMC3099244:

Molecular target: TAP-tagged wild-type Dyn1-GFP (cytoplasmic dynein heavy chain) (S. cerevisiae) (UniProt P36022)
Assay: single-molecule stepwise photobleaching

stoichiometry N: 2
Substance: TAP-tagged wild-type Dyn1-GFP (cytoplasmic dynein heavy chain), P36022 1-4092
